Assay results taken from patent publication US20200024360A1 (Janssen / Centocor, published 2020).
Where two headings read alike, the source gives them in different places.

Assays:
[1] = biological target: T1, recombinant cynomolgous monkey PSMA extracellular domain (ECD) protein (Macaca fascicularis, UniProt Q04609 48-750 (human entry), biotin on the Avi tag); test: SPR ProteOn
T1 construct: also called cyno PSMA ECD; PSMG1
T1 chain: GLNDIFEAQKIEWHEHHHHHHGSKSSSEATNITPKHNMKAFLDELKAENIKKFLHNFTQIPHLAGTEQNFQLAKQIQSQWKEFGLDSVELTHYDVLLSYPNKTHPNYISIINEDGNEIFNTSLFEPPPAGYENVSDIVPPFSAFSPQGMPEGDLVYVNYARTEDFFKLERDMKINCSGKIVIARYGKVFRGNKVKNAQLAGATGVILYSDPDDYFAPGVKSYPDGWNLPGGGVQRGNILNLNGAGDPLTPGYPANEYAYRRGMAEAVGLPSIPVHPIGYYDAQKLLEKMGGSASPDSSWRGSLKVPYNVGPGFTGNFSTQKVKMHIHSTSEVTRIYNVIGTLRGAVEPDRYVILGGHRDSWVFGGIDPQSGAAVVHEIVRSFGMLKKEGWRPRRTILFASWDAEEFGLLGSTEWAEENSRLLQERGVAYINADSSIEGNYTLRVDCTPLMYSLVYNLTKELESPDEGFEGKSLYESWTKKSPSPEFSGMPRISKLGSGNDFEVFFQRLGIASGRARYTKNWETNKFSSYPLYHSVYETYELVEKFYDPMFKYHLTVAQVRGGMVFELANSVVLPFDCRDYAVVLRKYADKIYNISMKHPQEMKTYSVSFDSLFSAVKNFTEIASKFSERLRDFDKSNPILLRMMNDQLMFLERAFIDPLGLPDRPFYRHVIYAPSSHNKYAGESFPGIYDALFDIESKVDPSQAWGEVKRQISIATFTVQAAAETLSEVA

[2] = biological target: T2, recombinant chimpanzee PSMA extracellular domain (ECD) protein (Pan troglodytes, UniProt Q04609 44-750 (human entry)); test: SPR ProteOn
T2 construct: also called Chimp PSMA ECD; PSMG8
T2 chain: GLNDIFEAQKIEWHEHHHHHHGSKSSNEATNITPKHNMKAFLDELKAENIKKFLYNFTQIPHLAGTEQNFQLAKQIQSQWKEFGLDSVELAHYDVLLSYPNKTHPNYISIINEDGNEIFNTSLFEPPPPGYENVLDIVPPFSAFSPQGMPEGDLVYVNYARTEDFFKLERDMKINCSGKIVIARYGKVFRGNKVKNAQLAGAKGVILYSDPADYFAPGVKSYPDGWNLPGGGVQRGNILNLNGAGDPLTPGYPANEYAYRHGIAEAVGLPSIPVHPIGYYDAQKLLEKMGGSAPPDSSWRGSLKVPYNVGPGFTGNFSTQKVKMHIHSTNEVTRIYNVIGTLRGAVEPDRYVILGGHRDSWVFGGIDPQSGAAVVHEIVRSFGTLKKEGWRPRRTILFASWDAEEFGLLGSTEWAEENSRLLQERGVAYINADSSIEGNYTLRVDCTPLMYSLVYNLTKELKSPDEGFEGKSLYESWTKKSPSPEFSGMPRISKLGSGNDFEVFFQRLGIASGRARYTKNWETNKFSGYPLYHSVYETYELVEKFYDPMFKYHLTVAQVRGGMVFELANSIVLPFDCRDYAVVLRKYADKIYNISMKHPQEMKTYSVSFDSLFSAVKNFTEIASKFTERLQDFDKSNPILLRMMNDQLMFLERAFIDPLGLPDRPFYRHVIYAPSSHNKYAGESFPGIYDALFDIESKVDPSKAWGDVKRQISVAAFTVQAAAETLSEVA

[3] = biological target: T3, recombinant human PSMA extracellular domain (ECD) protein (human, UniProt Q04609 44-750); test: SPR ProteOn
T3 construct: also called human PSMA ECD

[4] = biological target: T1, recombinant cynomolgous monkey PSMA …; test: SPR ProteOn
[5] = biological target: T2, recombinant chimpanzee PSMA …; test: SPR ProteOn
[6] = biological target: T3, recombinant human PSMA extracellular …; test: SPR ProteOn; remark: listed apart in the source
[7] = biological target: T3, recombinant human PSMA extracellular …; test: SPR ProteOn, bsAb captured by anti-Fc
[8] = biological target: T1, recombinant cynomolgous monkey PSMA …; test: SPR ProteOn, bsAb captured by anti-Fc

B1: PS3B27 (bispecific antibody, human IgG4 S228P, kappa, lambda, F234A L235A)
heavy 1: not shown
light 1: not shown
heavy 2: EVQLVESGGGLVQPGGSLRLSCAASGFTFNTYAMNWVRQAPGKGLEWVARIRSKYNNYATYYAASVKGRFTISRDDSKNSLYLQMNSLKTEDTAVYYCARHGNFGNSYVSWFAYWGQGTLVTVSSASTKGPSVFPLAPCSRSTSESTAALGCLVKDYFPEPVTVSWNSGALTSGVHTFPAVLQSSGLYSLSSVVTVPSSSLGTKTYTCNVDHKPSNTKVDKRVESKYGPPCPPCPAPEAAGGPSVFLFPPKPKDTLMISRTPEVTCVVVDVSQEDPEVQFNWYVDGVEVHNAKTKPREEQFNSTYRVVSVLTVLHQDWLNGKEYKCKVSNKGLPSSIEKTISKAKGQPREPQVYTLPPSQEEMTKNQVSLTCLVKGFYPSDIAVEWESNGQPENNYKTTPPVLDSDGSFLLYSKLTVDKSRWQEGNVFSCSVMHEALHNHYTQKSLSLSLGK
light 2: QTVVTQEPSLTVSPGGTVTLTCRSSTGAVTTSNYANWVQQKPGQAPRGLIGGTNKRAPGTPARFSGSLLGGKAALTLSGVQPEDEAEYYCALWYSNLWVFGGGTKLTVLGQPKAAPSVTLFPPSSEELQANKATLVCLISDFYPGAVTVAWKADSSPVKAGVETTTPSKQSNNKYAASSYLSLTPEQWKSHRSYSCQVTHEGSTVEKTVAPTECS
notes: IgG4 PAA; PSMA arm chains first, then CD3 arm (F405L, R409K); also called PSMB127 x CD3B219; PS2B27
- Kd [1]: 7 nM
- Kd [2]: 7.48 nM
- Kd [3]: 10.3 nM
- Kd [4]: 7 nM
- koff [4]: 0.0011 s⁻¹
- kon [4]: 159000 M⁻¹ s⁻¹
- Kd [5]: 7.48 nM
- koff [5]: 0.00156 s⁻¹
- kon [5]: 208000 M⁻¹ s⁻¹
- Kd [6]: 10.3 nM
- koff [6]: 0.00289 s⁻¹
- kon [6]: 287000 M⁻¹ s⁻¹
- Kd [7]: 10.3 nM
- koff [7]: 0.00289 s⁻¹
- kon [7]: 287000 M⁻¹ s⁻¹
- Kd [8]: 7 nM
- koff [8]: 0.0011 s⁻¹
- kon [8]: 159000 M⁻¹ s⁻¹

B2: PS3B25 (bispecific antibody, human IgG4 S228P, kappa, lambda, F234A L235A)
heavy 1: not shown
light 1: not shown
heavy 2: EVQLVESGGGLVQPGGSLRLSCAASGFTFNTYAMNWVRQAPGKGLEWVARIRSKYNNYATYYAASVKGRFTISRDDSKNSLYLQMNSLKTEDTAVYYCARHGNFGNSYVSWFAYWGQGTLVTVSSASTKGPSVFPLAPCSRSTSESTAALGCLVKDYFPEPVTVSWNSGALTSGVHTFPAVLQSSGLYSLSSVVTVPSSSLGTKTYTCNVDHKPSNTKVDKRVESKYGPPCPPCPAPEAAGGPSVFLFPPKPKDTLMISRTPEVTCVVVDVSQEDPEVQFNWYVDGVEVHNAKTKPREEQFNSTYRVVSVLTVLHQDWLNGKEYKCKVSNKGLPSSIEKTISKAKGQPREPQVYTLPPSQEEMTKNQVSLTCLVKGFYPSDIAVEWESNGQPENNYKTTPPVLDSDGSFLLYSKLTVDKSRWQEGNVFSCSVMHEALHNHYTQKSLSLSLGK
light 2: QTVVTQEPSLTVSPGGTVTLTCRSSTGAVTTSNYANWVQQKPGQAPRGLIGGTNKRAPGTPARFSGSLLGGKAALTLSGVQPEDEAEYYCALWYSNLWVFGGGTKLTVLGQPKAAPSVTLFPPSSEELQANKATLVCLISDFYPGAVTVAWKADSSPVKAGVETTTPSKQSNNKYAASSYLSLTPEQWKSHRSYSCQVTHEGSTVEKTVAPTECS
notes: IgG4 PAA; also called PSMB87 x CD3B219
- Kd [1]: 81.1 nM
- Kd [2]: 3.54 nM
- Kd [3]: 5.38 nM
- Kd [4]: 81.1 nM
- koff [4]: 0.00797 s⁻¹
- kon [4]: 98000 M⁻¹ s⁻¹
- Kd [5]: 3.54 nM
- koff [5]: 0.00099 s⁻¹
- kon [5]: 281000 M⁻¹ s⁻¹
- Kd [6]: 5.38 nM
- koff [6]: 0.00101 s⁻¹
- kon [6]: 188000 M⁻¹ s⁻¹
- Kd [7]: 5.38 nM
- koff [7]: 0.00101 s⁻¹
- kon [7]: 188000 M⁻¹ s⁻¹
- Kd [8]: 81.1 nM
- koff [8]: 0.00797 s⁻¹
- kon [8]: 98000 M⁻¹ s⁻¹
